Test results from the RNAGym collection of RNA variant scans (doi:10.1073/pnas.2313332121).

B1: TPR t1 (parent)
chain: GACCAAUCUGCCCUCAGAGCUCGAGAACAUCUUCGGAUGCAGAGGAGGCAGGCUUCGGUGGCGCGAUAGCGCCAACGUCCUCAACCUCCAAUGCAUCCCACCACAUGAUGAUGCCUGAAGAGCCUUGGUUUUUUG

Variants of: B1
Test: polymerase ribozyme fitness, log enrichment relative to wild type (log ratio); higher = more active; in vitro selection for triplet polymerase activity
Procedure, shortened: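 PCR was used to build mutant libraries for each subunit of a heterodimeric triplet polymerase ribozyme, which were then transcribed. A single in vitro selection round, in triplicate, used a frozen incubation at −7 °C and recovered extended constructs by gel excision, streptavidin beads and RT-PCR. Fitness is the logarithm of genotype enrichment relative to wild-type enrichment, averaged over replicates with inverse-variance weights. The logarithm is base 2, and after Illumina sequencing only genotypes with ≥10 input reads and ≥1 read per output were kept.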

Variant	polymerase ribozyme fitness (log ratio)
U78C U112C	2.04
U78A G107A	-5.55
C80A C97G G117C	-7.22
U78A G135U	-0.889
U78C A83U G107U	-5.42
C79A A111G	-0.997
U81A A95C A121C	0.395
U78C A90C	-0.796
C79A C99G G120U	-7.33
C80U C98G	-6.73
U78A A95U	-0.329
U78C G128A	-1.95
U78C A95C	-1.06
U78C A105G U112G	-3.99
U78C A100U U125G	-1.3
C79U U96G	-0.798
G77C U96A U125A	-3.38
C79G C88G U112A	-1.98
G77A U81C	0.0727
G77A U92C G117C	-5.8
U78G C123A	-1.06
C79G A103G	-5.92
C79U A95C	-0.848
U78C G93A	-0.707

Variant	polymerase ribozyme fitness (log ratio)
C80U A103G	-5.21
G77C C85U	-1.99
C79A C123A	-0.392
C80U C82G C101A C124G U126A	-1.21
G77A C123G G135U	0.853
U78A U131C	0.382
U78C G93C U96C C115A	-1.13
G77U U109A U116G	-7.07
U78A G113C U130C	-3.05
C80U U131G	-0.642
U78A U96C C104U	0.046
C79U C114A G120C G127U	-1.06
U78C A118G	-0.499
C80U C98A U132C	-5.2
C79G C114A C115G	-6.59
C80A G93A	-3.95
U78C A100U	-0.819
U81A C97U	-1.89
U78C C88U	0.285
C80A C86U	-3.32
U78A G117U	-2.81
U78G A111U	-3.77
G77U C89U	-0.519
U78G C102U G110A	-4.35

Variant	polymerase ribozyme fitness (log ratio)
C79U G107A	-4.41
U78G C86G C101U	-1.51
G77C A83C	-0.826
C80A G127U	-3.48
U78C C98U U112A U130A	-3.27
G77U C89A U109A	-6.3
U78G C89U U125G	-0.754
G77C C79U	0.563
C79U U81C	-1.91
U78C G117U	-2.53
C80U U81A C89U U126G	-3.21
U78C C86G	-0.656
C79U C101G	-1.8
U78G A103C U130C	-5.75
U81A A111U	-5.01
C79G U112C G122C	-0.637
U78C A91G	-1.15
C79G U116A	-4.35
C80A G93U G120C	-4.31
C80A C94A U112C	-2.27
U78A C94G C101A	-1.93
C79G U109A	-7.49
G77U U131G	-1.01
U78C C115A	-0.63

Variant	polymerase ribozyme fitness (log ratio)
C79U G117A U125G	-1.82
U78G C101G	-1.76
C79U C94U	-0.702
U78C G93A C101U C123U	-0.0122
G77U U78G C123A	-0.257
U78C C115G U133A	-1.97
C80G U87A A90U A111C	-6.64
C80U G117A	-2.28
C79U C86U	-0.175
G77C U131G	-0.172
G77C C124U G127A U129A	-0.0326
C79A C114G	-4.53
C79A C114A	-2.46
C80A U87G	-2.88
C79A G107U A119G G135C	-5.92
C80U C88U G127C	-1.46
G77C G110A A118C	-1.65
C80U C123A U129C	-1.18
G77C U130G	-1.48
U78C U106G	-1.09
C80G G117C	-6.43
C80U U129G U133A	-2.36
C79A A121U U134G	2.45
G77C U81G	-1.57

Variant	polymerase ribozyme fitness (log ratio)
U78C C101U G120U A121U U132A	1.42
C80U G107A	-6.42
C80U C98U C115A C124G	-0.376
U81A A121U	1.04
U78C C79G U106A	-0.519
U78C G113C	-1.53
U78C G113U	-3.31
C79U G93C A100U U112G	-2.61
C80G U106A G122A	-6.86
C79G C85U	-2.29
U81A C85U	-2.56
C79U U129G	-1.35
G77C C124U	1.82
U81A C88A C101U	-1.46
C79G C123G	0.221
C80U G127C	-3.21
C80A A91G G120U	-5.41
C79A G128C	-3.31
C79U C88U C97U	-0.508
C79U G120A	0.635
C79U C80U	-2.32
G77U C114G C124G	-1.15
G77A U92G C94A C99G A111C	-8.36
C79A G113A	-2.27

Variant	polymerase ribozyme fitness (log ratio)
G77C C101A G127A	-2.16
U78C C94U U112C	0.656
U78A C79U	0.293
C79A G110C	-5.36
C79A G110U	-3.48
C79U U106A U116G	-2.6
C79G G122A	-2.11
C80A G120C	-2.2
C80A G120U	-2.35
U78C C89U C115A	-0.146
C80U G113C	-3.19
C79A C102U	-4.37
U78C U129A	-1.01
C79U U87A	0.23
G77U A103C	-4.83
U81A C86U	-1.8
U81A C86A	-2.24
U78G C85G C88A A111G C114A	-6.16
G77U C88U C115U U131A	-1.33
C80U G113C G135C	-2.92
G77C A95C G113A	-2.42
C79G A84U	-2.3
G77C U78G U106A	-0.0347
U78A G128A	-1.76

Variant	polymerase ribozyme fitness (log ratio)
C80U A83G	-1.23
U78C C104A G113U	-4.71
C80G U112A	-5.14
C79A U112A C115A C123G	0.259
U78A G93C	-0.506
U78C U87G C88A G113A G127A	-3.89
C80G A118U	-5.08
U78A C104A	-1.8
U78C C114G	-2.46
U78C C114U	-2.28
C79U A95C G120A	-0.000389
C80U A84U G135C	-0.488
G77A U87A C101G	-2.13
C80U A118C	-3.16
U78G U112G	1.33
U78A U133A	-0.443
U78C U92G	-2.87
U78C C97U A103U C123G	-4.59
U78A G120U	-0.295
U78G A90C	-1.6
U78C C80G	-4.13
U78C C80A	-1.94
U78G G113A U130C	-1.64
